Patent US20110212084A1 (AstraZeneca / MedImmune, published 2011)
Substitutions are numbered along the chain they refer to.

T1: Cynomolgus Cε3-4 FLAG His10 (cynomolgus monkey)
T1 construct: also called cynomolgus IgE Cε3-Cε4 domain (in house HEK-EBNA derived)
T1 chain: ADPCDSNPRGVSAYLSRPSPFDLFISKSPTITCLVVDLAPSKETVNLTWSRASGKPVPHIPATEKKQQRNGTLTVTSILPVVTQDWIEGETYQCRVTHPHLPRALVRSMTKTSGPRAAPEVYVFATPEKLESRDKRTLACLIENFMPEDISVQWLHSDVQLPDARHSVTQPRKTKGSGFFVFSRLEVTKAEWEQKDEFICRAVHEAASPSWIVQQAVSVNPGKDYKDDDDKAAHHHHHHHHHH

B1: Antibody 26 (IgG) (antibody, V domains shown)
VH: EVQLLESGGGLVQPGGSLRLSCAASGLTFSGYAMSWVRQAPGKGLEWVSAISGSGGRTYYADSVKGRFTISRDNSKNMLYLQMNSLRAEDTAVYYCARHIAVAGTRGFDYWGRGTLVTVSS
VL: SFVLTQPPSVSVSPGQTASITCSGDKLGDTYASWYRQRSGQSPVLVIYQDDKRPSGIPERFSGSNSGNTATLTIGGTHTMDEADYYCLAWDTRTSGAVFGGGTKLTVL
B2: Antibody 34 (IgG) (antibody, V domains shown)
VH: EVQLLESGGGLVQPGGSLRLSCAAPGFTLSSYAMSWVRQAPGKGLEWVSAISGGSGGRTYYADSVKGRFTISRDNSKNTLYLQMNSLRAEDTAVYYCARHIAVAGTRGFDYWGRGTLVTVSS
VL: B1 VL with F2Y, V12A, S55P, G75R, T106S
B3: Antibody 9 (IgG) (antibody, V domains shown)
VH: B2 VH with P25S, L29F
VL: B1 VL with T5S, G75S
B4: Antibody 1 (IgG) (antibody, V domains shown)
VH: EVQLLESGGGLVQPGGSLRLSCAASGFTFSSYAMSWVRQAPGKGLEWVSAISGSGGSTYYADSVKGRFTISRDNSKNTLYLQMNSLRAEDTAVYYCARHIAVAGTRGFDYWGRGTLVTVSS
VL: B1 VL with F2Y, T30K, G75S
notes: also called parent antibody
B5: Antibody 15 (IgG) (antibody, V domains shown)
VH: B2 VH with L29F
VL: B1 VL with F2Y, K52R, G75S
B6: Antibody 33GL (germlined IgG) (antibody, V domains shown)
VH: B2 VH with R19S, L29F, R73K
VL: B1 VL with F2Y, V3E, R36Q, R38K, S39P, Q41L, V44A, G75S, H78Q, T79A
notes: germlined IgG; also called Antibody 35 (provisional application)
B7: Antibody 33 (IgG) (antibody, V domains shown)
VH: B2 VH with R19S, L29F, R73K
VL: B1 VL with F2Y, Q41L, V44A, G75S

Legend:
[1] = biological target: T2, cynomolgus IgE (recombinant chimaeric D12 variable region / cynomolgus IgE constant region) (cynomolgus monkey (constant region)); assay: cell-based or functional assay
T2 sequence (heavy, as listed by the source limits assumed, chain 1 of 2): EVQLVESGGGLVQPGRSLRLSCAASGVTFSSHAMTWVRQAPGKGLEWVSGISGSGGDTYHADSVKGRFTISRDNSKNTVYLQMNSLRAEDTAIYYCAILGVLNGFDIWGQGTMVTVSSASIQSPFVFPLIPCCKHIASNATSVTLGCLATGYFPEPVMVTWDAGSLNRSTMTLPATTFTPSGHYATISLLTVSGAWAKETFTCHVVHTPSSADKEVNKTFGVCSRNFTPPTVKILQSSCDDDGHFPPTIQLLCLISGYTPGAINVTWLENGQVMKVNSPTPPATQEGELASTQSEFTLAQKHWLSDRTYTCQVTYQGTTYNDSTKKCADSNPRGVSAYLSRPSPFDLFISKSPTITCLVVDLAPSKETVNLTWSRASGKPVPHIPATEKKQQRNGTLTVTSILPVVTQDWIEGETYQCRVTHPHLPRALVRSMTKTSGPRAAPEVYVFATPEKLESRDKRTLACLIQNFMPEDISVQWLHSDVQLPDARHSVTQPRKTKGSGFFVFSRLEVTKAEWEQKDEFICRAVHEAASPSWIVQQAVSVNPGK
T2 sequence (light, as listed by the source limits assumed, chain 2 of 2): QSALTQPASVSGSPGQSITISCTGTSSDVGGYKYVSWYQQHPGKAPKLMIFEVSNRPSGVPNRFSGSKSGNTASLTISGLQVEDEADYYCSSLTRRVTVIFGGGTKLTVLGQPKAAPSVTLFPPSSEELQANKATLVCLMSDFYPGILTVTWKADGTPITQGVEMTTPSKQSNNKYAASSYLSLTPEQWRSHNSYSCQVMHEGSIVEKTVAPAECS

[2] = biological target: human IgEλ (U266 derived) (human, UniProt P01854 1-546); assay: cell-based or functional assay
[3] = biological target: T3, human IgE (source not stated for the assay) (human, UniProt P01854-1 1-428); assay: SPR, BIAcore 2000; IgE amine-coupled to CM5 chip, IgG as analyte, bivalent analyte model; geomean
T3 construct: also called purified human IgE; IgE (Calbiochem or U266-derived)
T3 sequence (P01854 other isoform, or with tags, fused parts or gaps): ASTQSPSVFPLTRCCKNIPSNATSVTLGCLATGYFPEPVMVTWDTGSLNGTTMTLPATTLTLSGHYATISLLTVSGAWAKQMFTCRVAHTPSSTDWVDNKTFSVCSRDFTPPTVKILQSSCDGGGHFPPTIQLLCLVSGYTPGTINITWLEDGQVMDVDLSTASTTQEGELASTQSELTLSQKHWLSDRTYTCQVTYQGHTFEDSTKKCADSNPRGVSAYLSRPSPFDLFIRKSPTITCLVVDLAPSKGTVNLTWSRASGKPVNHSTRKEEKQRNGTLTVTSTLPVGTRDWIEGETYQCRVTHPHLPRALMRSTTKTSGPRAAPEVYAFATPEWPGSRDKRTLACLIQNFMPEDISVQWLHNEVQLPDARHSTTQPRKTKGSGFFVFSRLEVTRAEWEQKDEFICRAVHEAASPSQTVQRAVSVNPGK
Description: (§1) The binding affinity of purified IgG samples of a representative number of clones to human and cynomolgus IgE was determined by surface plasmon resonance using BIAcore 2000 biosensor (BIAcore AB) essentially as described by Karlsson et al 1991; Journal of Immunological Methods 145 (1-2) 229-240. In brief, purified human or cynomolgus IgE was covalently coupled to the surface of a CM5 sensor chip (BIAcore) using standard amine coupling reagents according to the manufacturer's instructions to provide a surface density of 100 RU. IgG samples prepared in HBS-EP buffer (BIAcore (AB), at a range of concentrations, between 250 nM and 15.6 nM were passed over the sensor chip surface. The surface was regenerated using 10 mM Glycine, pH 1.75 between each injection of antibody. The resulting sensorgrams were evaluated using BIA evaluation 3.1 software and fitted to a bivalent analyte model, to provide relative binding data.

[4] = biological target: T4, human IgE Cε3-Cε4 domain, C-terminally tagged with FLAG His10 (human, UniProt P01854-1 209-428, limits assumed); assay: DELFIA epitope competition; competitor vs biotinylated human IgE on immobilised IgG
T4 construct: domain: Cε3-Cε4; secreted with murine IgG1 leader from HEK293-EBNA cells; also called human IgE Ce3-4; human IgE Cε3-Cε4 domain (in house HEK-EBNA derived)
T4 sequence (P01854 other isoform, or with tags, fused parts or gaps limits assumed): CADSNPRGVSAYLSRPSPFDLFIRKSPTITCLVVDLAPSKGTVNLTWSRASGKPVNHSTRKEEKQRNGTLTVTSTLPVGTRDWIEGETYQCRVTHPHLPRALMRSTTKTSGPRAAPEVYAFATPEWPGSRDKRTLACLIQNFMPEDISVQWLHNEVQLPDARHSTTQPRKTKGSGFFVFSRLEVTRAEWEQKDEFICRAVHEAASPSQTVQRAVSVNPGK
Description: (§2) Purified IgG were adsorbed onto 96-well Maxisorp microtitre plates (Nunc) in PBS at a concentration which gave a significant signal when biotinylated human IgE was added at approximately its estimated KD for that particular IgG. Excess IgG was washed away with PBS-Tween (0.1% v/v) and the wells were blocked with PBS-Marvel (3% w/v) for 1 h. […] To this series, an equal volume of biotinylated human IgE at a concentration of approximately the KD was added (resulting in a series starting at a ratio of competitor antigen:biotinylated human IgE of approximately 1000:1). These mixtures were then transferred onto the blocked IgG and allowed to equilibrate for 1 h. Unbound antigen was removed by washing with PBS-Tween (0.1% v/v), while the remaining biotinylated human IgE was detected by streptavidin-Europium3+ conjugate (DELFIA® detection, PerkinElmer). Time-resolved fluorescence was measured at 620 nm on an EnVision plate reader (PerkinElmer). Fluorescence data were analysed using either Graphpad Prism or Microsoft Excel software.

[5] = biological target: T1, Cynomolgus Cε3-4 FLAG His10; assay: as above
Description: as §2

[6] = biological target: T3, human IgE (source not stated for the …); assay: cell-based or functional assay
[7] = biological target: T2, cynomolgus IgE (recombinant chimaeric …); assay: SPR, BIAcore 2000; cynomolgus IgE amine-coupled to CM5 chip, IgG as analyte, bivalent analyte model; geomean
Description: as §1

[8] = biological target: T5, human IgEλ (U266 derived) (human, UniProt P01854 1-546); assay: cell-based or functional assay; remark: listed apart in the source
[9] = biological target: T5, human IgEλ (U266 derived); assay: cell-based or functional assay; remark: listed apart in the source
[10] = biological target: T5, human IgEλ (U266 derived); assay: flow cytometry competition; IgG titrated, mixed with IgE (U266, 10 µg/mL), IgE binding to CD23 on IL-4 treated IM9 cells
Description: Some of these optimised antibodies were evaluated for inhibition of the IgE/CD23 interaction using the IM9 binding assay as previously described.
Antibody dilutions (667 nM to 1 nM) were prepared in U-bottomed polypropylene plates (Greiner) and mixed with IgE (U266-derived [Ikeyama et. al. 1986. Molecular Immunology 23 (2); p159-167]) to a final IgE concentration of 10 μg/mL for 30 minutes at room temperature. Cell plates were spun at 2000 rpm for 2 minutes and supernatant was aspirated, leaving the cell pellet intact. Cells were resuspended in 100 μL/well antibody/IgE mix and incubated on ice for 1 hour. Cell plates were centrifuged at 2000 rpm for 2 minutes and antibody/IgE supernatants were aspirated. Cells were washed by resuspending in 200 μL/well of Flow buffer and centrifuging as above.
IgE bound to the cell surface was detected with anti-IgE-phycoerythin (Caltag) diluted 1/30, v/v, 100 μL/well. Assay plates were incubated on ice for 20 minutes in the dark before centrifuging at 2000 rpm for 2 minutes and washing with 2×200 μL of Flow buffer as described above. Cells were resuspended in 100 μL Cell Fix (BD biosciences) and analysed using a FACSCalibur (BD Biosciences) to detect FL2 staining.

Binder | RBL-ER51 calcium signalling IC50 (nM) Geomean, cynomolgus IgE 100 ng/ml [1] | RBL-ER51 calcium signalling IC50 (nM) Geomean, human IgE 25 ng/ml [2] | Kd [3] | further results
B1 | 17 nM | 1.2 nM | – | –
B2 | 22 nM | 0.223 nM | 26 nM | –
B3 | 4.5 nM | 0.286 nM | 79 nM | –
B4 | – | – | – | binding result [4]: no binding; binding result [5]: no binding; RBL-ER51 calcium signalling IC50 [6]: 267 nM
B5 | 5.4 nM | 0.341 nM | 0.9 nM | Kd [7]: 7 nM
B6 | – | – | 0.142 nM | binding result [4]: no binding; binding result [5]: no binding; RBL-ER51 calcium signalling IC50 (nM) Human IgE Geomean [8]: 0.197 nM
B7 | 5.1 nM | – | 0.8 nM | Kd [7]: 2.3 nM; RBL-ER51 calcium signalling IC50 (nM) Geomean, human IgE 25 ng/ml [9]: 0.112 nM; IC50 [10]: 83 nM
